Source: the supplement of paper PMC7125110
± gives the standard error. This sample holds only a part of the variants without activity.

B1: glmS ribozyme (parent)
chain: AUAAAAGCGCCAGAACUACAGAAAUGUAGUUGACGAGGAGGAGGUUUAUCGAAUUUUCGGCGGAUGCCUCCAAA

How the values were obtained:
Details in all cases: with glucosamine-6-phosphate
glucosamine-6-phosphate [1] = variants of: B1; experiment: self-cleavage kobs at 40 uM GlcN6P; higher = faster cleavage; RNA array
Summary of the method: (§1)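 kcat and KM were obtained from weighted Michaelis–Menten fits across concentrations of kobs values. Those came from one- or two-exponential decay fits to per-tile medians normalised to baseline and to non-cleaving reference variants. The variants were barcoded ribozymes transcribed in situ by E. coli RNA polymerase on sequenced MiSeq chips and tracked through a hybridised Cy3 probe at 37 °C, with 40 μM to 10 mM glucosamine-6-phosphate in HEPES/KCl/Mg(OAc)2 buffer flowed in.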

glucosamine-6-phosphate [2] = variants of: B1; experiment: self-cleavage kobs at 10000 uM GlcN6P; higher = faster cleavage; RNA array
Summary of the method: as §1

glucosamine-6-phosphate [3] = variants of: B1; experiment: self-cleavage kobs at 2500 uM GlcN6P; higher = faster cleavage; RNA array
Summary of the method: as §1

glucosamine-6-phosphate [4] = variants of: B1; experiment: self-cleavage kobs at 160 uM GlcN6P; higher = faster cleavage; RNA array
Summary of the method: as §1

glucosamine-6-phosphate [5] = variants of: B1; experiment: self-cleavage kobs at 640 uM GlcN6P; higher = faster cleavage; RNA array
Summary of the method: as §1

Row | Variant | self-cleavage kobs at 40 uM GlcN6P (glucosamine-6-phosphate [1]) [s⁻¹] | self-cleavage kobs at 10000 uM GlcN6P (glucosamine-6-phosphate [2]) [s⁻¹] | self-cleavage kobs at 2500 uM GlcN6P (glucosamine-6-phosphate [3]) [s⁻¹] | self-cleavage kobs at 160 uM GlcN6P (glucosamine-6-phosphate [4]) [s⁻¹] | self-cleavage kobs at 640 uM GlcN6P (glucosamine-6-phosphate [5]) [s⁻¹]
1 | C10U U45A C50U G66A | < 1e-05 | < 1e-05 | – | – | –
2 | C11G U46A C67G | < 1e-05 | < 1e-05 | – | – | –
3 | C11G G40A G43A | < 1e-05 | < 1e-05 | – | – | –
4 | C10U G40U C58A | < 1e-05 | < 1e-05 | < 1e-05 | – | –
5 | C11U G13A A33C A53U | < 1e-05 | – | – | – | –
6 | C11G A39U C50G | < 1e-05 | < 1e-05 | < 1e-05 | < 1e-05 | < 1e-05
7 | C11G A64U C67A | < 1e-05 | < 1e-05 | – | – | –
8 | C11A G44U G59U C67A | 0.000322 ± 8.1e-05 | 0.00946 ± 0.002 | – | – | –
9 | C11A A39C G62C A64U C67G | < 1e-05 | – | – | – | –
10 | C11A A15C U45G C70U | < 1e-05 | – | – | – | –
11 | C10U U31C C34U | < 1e-05 | – | – | – | –
12 | C11G G41C | < 1e-05 | – | < 1e-05 | < 1e-05 | < 1e-05
13 | C11G A12U | < 1e-05 | – | < 1e-05 | – | –
14 | C11U C34G G41A U47G | < 1e-05 | < 1e-05 | < 1e-05 | – | < 1e-05
15 | C11G U31G A53C | < 1e-05 | – | – | – | –
16 | C11U G32U U49A C71A | < 1e-05 | – | – | – | –
17 | C10U G60U | < 1e-05 | < 1e-05 | – | < 1e-05 | < 1e-05
18 | C11U A33U C61G | < 1e-05 | – | – | – | –
19 | C11G A36C U55C | < 1e-05 | – | – | – | < 1e-05
20 | C11G U31C C34G U46A | < 1e-05 | < 1e-05 | – | – | –
21 | C11G G35C C70G | 8.82e-05 ± 4e-05 | – | – | – | –
22 | C10U G59C C68A | < 1e-05 | < 1e-05 | – | – | –
23 | C11U C34A | < 1e-05 | – | – | – | < 1e-05
24 | C10U G41U | < 1e-05 | < 1e-05 | < 1e-05 | < 1e-05 | < 1e-05
25 | C11G A15C | < 1e-05 | – | < 1e-05 | < 1e-05 | < 1e-05
26 | C11A A14C A36G C50U C58U C61G | 0.000206 ± 8.1e-05 | – | – | – | –
27 | C11U A15C G62C | < 1e-05 | < 1e-05 | – | – | –
